Measured values as given in US20240100176A1 (Eli Lilly, published 2024).

Assays:
[1] = target: T1, hexahistidine tagged human IL-4Rα ECD H197G (human, UniProt P24394 26-232); experiment: capture ELISA: Ab1 on anti-human IgG Fc, His-tagged receptor at 0.04 µg/mL, anti-His HRP
T1 construct: not shown: hexahistidine tag
From the text: (§1) Example 2d. […] Briefly, thirty surface amino acid residue substitutions were introduced individually into hexahistidine tagged human IL-4Rα extra cellular domain (ECD) as follows: K2D, E6R, K22D, P26R, T31R, F41A, L42G, L43G, E45R, E52R, G56R, D66R, A71R, Q82G, K87D, E94R, H107A, D108R, P124R, D125R, D143R, R148D, L155R, R160D, S164R, S168R, Q181R, P192R, K195D, or H197G. Each mutant protein having a single amino acid residue substitution as described above was transiently expressed in CHO cells and purified using standard immobilized metal affinity chromatography techniques. […] The plates were then washed 3 times with PBST and the exemplified human IL-4Rα antibody was added to the wells at a final concentration of 1 μg/mL in PBS-casein and incubated for 1 hour at room temperature. The plates were washed 3 times with PBST, the IL-4Rα mutant proteins were serially diluted 5-fold from 1 μg/mL for 3 points. in PBS-casein and added to the plate at 50 μL/well and incubated for 1 hour at room temperature. The plates were washed 3 times with PBST and a 1000-fold dilution of anti-histidine tag antibody HRP conjugate (R&D Systems, Cat. #MAB050H) in PBS-casein was added and incubated for 45 minutes at room temperature. The plates were washed 3 times, TMB substrate (Pierce, Cat. #34028) was added per manufacturer instructions, the reaction was quenched with H₂SO₄, and absorbance was read at 450 nm on an ELISA plate reader.

[2] = target: T2, hexahistidine tagged human IL-4Rα ECD P124R (human, UniProt P24394 26-232); experiment: as above
T2 construct: not shown: hexahistidine tag
From the text: as §1

[3] = target: T3, hexahistidine tagged human IL-4Rα ECD K87D (human, UniProt P24394 26-232); experiment: as above
T3 construct: not shown: hexahistidine tag
T3 sequence (P24394 26-232 K112D): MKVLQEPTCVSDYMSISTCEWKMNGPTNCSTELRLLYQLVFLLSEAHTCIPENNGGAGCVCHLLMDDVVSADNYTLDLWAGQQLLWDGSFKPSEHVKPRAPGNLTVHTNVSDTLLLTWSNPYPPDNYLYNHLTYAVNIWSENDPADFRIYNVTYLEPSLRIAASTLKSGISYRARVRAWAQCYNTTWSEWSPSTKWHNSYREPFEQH
From the text: as §1

[4] = target: T4, hexahistidine tagged human IL-4Rα ECD P192R (human, UniProt P24394 26-232); experiment: as above
T4 construct: not shown: hexahistidine tag
T4 sequence (P24394 26-232 P217R): as the sequence (P24394 26-232 K112D) above, with D87K, P192R counted along it
From the text: as §1

[5] = target: T5, hexahistidine tagged human IL-4Rα ECD P26R (human, UniProt P24394 26-232); experiment: capture ELISA: Ab1 on anti-human IgG Fc, His-tagged receptor at 0.2 µg/mL, anti-His HRP
T5 construct: not shown: hexahistidine tag
T5 sequence (P24394 26-232 P51R): as the sequence (P24394 26-232 K112D) above, with P26R, D87K counted along it
From the text: as §1

[6] = target: T6, hexahistidine tagged human IL-4Rα ECD S164R (human, UniProt P24394 26-232); experiment: as above
T6 construct: not shown: hexahistidine tag
T6 sequence (P24394 26-232 S189R): as the sequence (P24394 26-232 K112D) above, with D87K, S164R counted along it
From the text: as §1

[7] = target: T7, hexahistidine tagged human IL-4Rα ECD G56R (human, UniProt P24394 26-232); experiment: as above
T7 construct: not shown: hexahistidine tag
T7 sequence (P24394 26-232 G81R): as the sequence (P24394 26-232 K112D) above, with G56R, D87K counted along it
From the text: as §1

[8] = target: T8, hexahistidine tagged human IL-4Rα ECD Q82G (human, UniProt P24394 26-232); experiment: as above
T8 construct: not shown: hexahistidine tag
T8 sequence (P24394 26-232 Q107G): as the sequence (P24394 26-232 K112D) above, with Q82G, D87K counted along it
From the text: as §1

[9] = target: T9, hexahistidine tagged human IL-4Rα ECD D125R (human, UniProt P24394 26-232); experiment: as above
T9 construct: not shown: hexahistidine tag
T9 sequence (P24394 26-232 D150R): as the sequence (P24394 26-232 K112D) above, with D87K, D125R counted along it
From the text: as §1

[10] = target: T10, hexahistidine tagged human IL-4Rα ECD R160D (human, UniProt P24394 26-232); experiment: as above
T10 construct: not shown: hexahistidine tag
T10 sequence (P24394 26-232 R185D): as the sequence (P24394 26-232 K112D) above, with D87K, R160D counted along it
From the text: as §1

[11] = target: T11, hexahistidine tagged human IL-4Rα ECD L155R (human, UniProt P24394 26-232); experiment: as above
T11 construct: not shown: hexahistidine tag
T11 sequence (P24394 26-232 L180R): as the sequence (P24394 26-232 K112D) above, with D87K, L155R counted along it
From the text: as §1

[12] = target: T2, hexahistidine tagged human IL-4Rα ECD …; experiment: as above
From the text: as §1
Target sequence in this assay (P24394 26-232 P149R): as the sequence (P24394 26-232 K112D) above, with D87K, P124R counted along it

[13] = target: T12, hexahistidine tagged human IL-4Rα ECD E6R (human, UniProt P24394 26-232); experiment: as above
T12 construct: not shown: hexahistidine tag
T12 sequence (P24394 other isoform, or with tags, fused parts or gaps): as the sequence (P24394 26-232 K112D) above, with E6R, D87K counted along it
From the text: as §1

[14] = target: T13, hexahistidine tagged human IL-4Rα ECD K2D (human, UniProt P24394 26-232); experiment: as above
T13 construct: not shown: hexahistidine tag
T13 sequence (P24394 other isoform, or with tags, fused parts or gaps): as the sequence (P24394 26-232 K112D) above, with K2D, D87K counted along it
From the text: as §1

[15] = target: T14, hexahistidine tagged human IL-4Rα ECD R148D (human, UniProt P24394 26-232); experiment: as above
T14 construct: not shown: hexahistidine tag
T14 sequence (P24394 26-232 R173D): as the sequence (P24394 26-232 K112D) above, with D87K, R148D counted along it
From the text: as §1

[16] = target: T4, hexahistidine tagged human IL-4Rα ECD …; experiment: as above
From the text: as §1

[17] = target: T15, hexahistidine tagged human IL-4Rα ECD L42G (human, UniProt P24394 26-232); experiment: as above
T15 construct: not shown: hexahistidine tag
T15 sequence (P24394 26-232 L67G): as the sequence (P24394 26-232 K112D) above, with L42G, D87K counted along it
From the text: as §1

[18] = target: T16, hexahistidine tagged human IL-4Rα ECD K22D (human, UniProt P24394 26-232); experiment: as above
T16 construct: not shown: hexahistidine tag
T16 sequence (P24394 26-232 K47D): as the sequence (P24394 26-232 K112D) above, with K22D, D87K counted along it
From the text: as §1

T1 sequence (P24394 26-232 H222G): as the sequence (P24394 26-232 K112D) above, with D87K, H197G counted along it

B1: anti-human IL-4Rα antibody Ab1 (antibody, human IgG4 S228P, kappa)
heavy: QVQLVESGGGLVQPGGSLRLSCVASGFTFSHSSMNWVRQAPGKGLEWVSYISRATGAVYYADSVKGRFTISRDNAKNSLYLQMNSLRDEDTAVYYCAREPVFDYWGQGTLVTVSSASTKGPCVFPLAPCSRSTSESTAALGCLVKDYFPEPVTVSWNSGALTSGVHTFPAVLQSSGLYSLSSVVTVPSSSLGTKTYTCNVDHKPSNTKVDKRVESKYGPPCPPCPAPEFLGGPSVFLFPPKPKDTLMISRTPEVTCVVVDVSQEDPEVKFNWYVDGVEVHNAKTKPREEQFNSTYRVVSVLTVLHQDWLNGKEYKCKVSNKGLPSSIEKTISKAKGQPREPQVYTLPPSREEMTKNQVSLTCLVKGFYPSDICVEWESNGQPENNYKTTPPVLDSDGSFFLYSRLTVDKSRWQQGNVFSCSVMHEALHNHYTQKSLSLSLG
light: DIQMTQSPSAMSASVGDRVTITCRASQDISNYLAWFQQKPGKVPTRLIYAASSLQSGVPSRFSGSGSGTEFTLTISSLQPEDFATYYCLQWSSYPRTFGQGTKVEIKRTVAAPSVFIFPPSDEQLKSGTASVVCLLNNFYPREAKVQWKVDNALQSGNSQESVTEQDSKDSTYSLSSTLTLSKADYEKHKVYACEVTHQGLSSPVTKSFNRGEC
notes: human kappa light chain; also called anti-human IL-4Rα Ab1; unconjugated Ab1
ELISA (OD450) [1]: 0.967 OD450
ELISA (OD450) [2]: 1.16 OD450
ELISA (OD450) [3]: 0.911 OD450
ELISA (OD450) [4]: 1.22 OD450
ELISA (OD450) [5]: 1.52 OD450
ELISA (OD450) [6]: 1.77 OD450
ELISA (OD450) [7]: 1.7 OD450
ELISA (OD450) [8]: 1.53 OD450
ELISA (OD450) [9]: 1.61 OD450
ELISA (OD450) [10]: 1.7 OD450
ELISA (OD450) [11]: 1.68 OD450
ELISA (OD450) [12]: 1.7 OD450
ELISA (OD450) [13]: 1.5 OD450
ELISA (OD450) [14]: 1.61 OD450
ELISA (OD450) [15]: 1.6 OD450
ELISA (OD450) [16]: 1.75 OD450
ELISA (OD450) [17]: 1.48 OD450
ELISA (OD450) [18]: 1.3 OD450
